Assays:
[1] = biological target: T1, soluble form of the extracellular domain of human CD40 (Creative BioMart) (human, UniProt P25942 21-193); test: SPR, Ab captured
T1 construct: Bought
Procedure: CD40 binding kinetics was analyzed by surface plasmon resonance assay with a Biacore T200 instrument (Table 1-5). Briefly, a goat anti-mouse Fc antibody (Pierce) or goat anti-human Fc (Pierce) was immobilized on a CM5 sensor chip, followed by capture of the anti-CD40 antibodies on the test surface. Subsequently, the soluble form of the extracellular domain of human CD40 (Creative BioMart) or cynomolgus (cyno) CD40 (Creative BioMart) was injected, and the binding and dissociation were measured.

[2] = biological target: human CD40 on cells (HEK293 stable transfectants, HEK-Blue CD40 cells, human B cells, monocytic cells, … (human, UniProt P25942 21-277)); test: cell-based or functional assay
Sequence of human CD40 on cells (HEK293 stable transfectants, HEK-Blue CD40 cells, human B cells, monocytic cells, … (P25942 21-277 limits assumed): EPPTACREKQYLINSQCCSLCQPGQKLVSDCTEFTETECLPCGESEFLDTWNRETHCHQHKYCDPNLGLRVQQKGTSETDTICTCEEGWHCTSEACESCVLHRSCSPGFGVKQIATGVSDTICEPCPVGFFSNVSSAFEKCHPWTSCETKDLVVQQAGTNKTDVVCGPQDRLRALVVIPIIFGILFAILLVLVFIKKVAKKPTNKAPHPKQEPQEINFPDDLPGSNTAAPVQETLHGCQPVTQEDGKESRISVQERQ

human mesothelin = biological target: T2, human mesothelin (human, UniProt Q13421 296-580, limits assumed); test: SPR
T2 construct: also called Human MSLN
T2 sequence (Q13421 other isoform, or with tags, fused parts or gaps limits assumed): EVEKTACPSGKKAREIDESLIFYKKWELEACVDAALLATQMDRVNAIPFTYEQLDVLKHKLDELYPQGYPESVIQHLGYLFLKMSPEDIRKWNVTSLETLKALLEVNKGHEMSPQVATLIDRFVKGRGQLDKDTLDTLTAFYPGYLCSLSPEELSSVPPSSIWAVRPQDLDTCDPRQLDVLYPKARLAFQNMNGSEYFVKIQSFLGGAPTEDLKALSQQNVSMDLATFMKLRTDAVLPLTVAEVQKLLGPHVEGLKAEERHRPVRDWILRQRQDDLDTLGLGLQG

cynomolgus mesothelin = biological target: T3, cynomolgus mesothelin (cynomolgus); test: SPR
T3 construct: also called cynoMSLN; Cyno MSLN

T1 sequence (P25942 21-193 limits assumed): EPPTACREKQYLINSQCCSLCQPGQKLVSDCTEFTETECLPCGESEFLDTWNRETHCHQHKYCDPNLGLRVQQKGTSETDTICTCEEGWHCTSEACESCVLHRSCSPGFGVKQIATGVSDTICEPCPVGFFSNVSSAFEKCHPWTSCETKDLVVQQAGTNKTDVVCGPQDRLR

| Kd [1] | koff [1] | kon [1] | Monocyte activation (THP1-Xblue, OD655) [2] | moDC activation (IL-12p70) [2] | Kd (human mesothelin) | koff (human mesothelin) | kon (human mesothelin) | Kd (cynomolgus mesothelin) | koff (cynomolgus mesothelin) | kon (cynomolgus mesothelin) | Binder |
| --- | --- | --- | --- | --- | --- | --- | --- | --- | --- | --- | --- |
| 64 nM | 0.0048 s⁻¹ | 75000 M⁻¹ s⁻¹ | 0.12 OD655 | 1510 pg/mL |  |  |  |  |  |  | AD163.27.12 (antibody, V domains shown, mouse hybridoma antibody; also called muAb7) VH: QVQLQQPGAELVRPGSSVKLSCKASGYTFTSYWMHWVKQRPIQGLEWIGNIDPSNGETHYNQKFKDKATLTVDKSSSTAYMQLSSLTSEDSAVYYCARERIYYSGSTYDGYFDVWGTGTTVTVSS VL: QIVLTQSPAIMSASPGEKVTMTCSASSSLSYMHWYQQKSGTSPKRWIYDTSKLASGVPARFSGSGSGTSYSLTISSMEGEDGATYYCQQWSSNPWTFGGGTKLEIK |
| 19 nM | 0.052 s⁻¹ | 2.8e+06 M⁻¹ s⁻¹ | 0.15 OD655 | 878 pg/mL |  |  |  |  |  |  | AD164.14.6 (antibody, V domains shown, mouse hybridoma antibody; also called muAb9) VH: DVQLQESGPGLVKPSQSLSLTCSVTGYSITSNYYWNWIRQFPGNKLEWMGYIRYDGSNNYNPSLKNRISITRDTSKNQFFLKLNSVTTEDTATYYCARLDYWGQGTTLTVSS VL: DAVMTQTPLSLPVSLGDQASISCRSSQSLENTNGNTFLNWFLQKPGQSPQLLIYRVSNRFSGVPDRFSGSGSGTDFTLKISRVEAEDLGVYFCLQVTHVPFTFGSGTKLEIK |
|  |  |  |  |  | 0.53 nM | 1.5e-05 s⁻¹ | 29000 M⁻¹ s⁻¹ | 3.4 nM | 9.1e-05 s⁻¹ | 27000 M⁻¹ s⁻¹ | HuAM17 (antibody, V domains shown, fully human antibody) VH: EVQLVQSGAEVKKPGASVKVSCKASGDTFNRYYVQWVRQAPGQGLEWMGIINPSGVSTTYAQKFQGRVTMTRDTSTSTVYMELSSLRSEDTAVYYCAESRVPGYNIFAMDVWGQGTLVTVSS VL: SYELTQPPSVSVSPGQTASITCSGDKLGDKYASWYQQKPGQSPVLVIYQDNRRPSGIPERFSGSNSGNTATLTISGTQAMDEADYYCQAWDSDTYVFGTGTKVTVL |
|  |  |  |  |  | ≤ 0.66 nM | ≤ 1e-05 s⁻¹ | 16000 M⁻¹ s⁻¹ | 9.3 nM | 0.00013 s⁻¹ | 14000 M⁻¹ s⁻¹ | HuAM18 (antibody, V domains shown, fully human antibody) VH: EVQLVQSGAEVKKPGASVKVSCKASGDTFNRYYVHWVRQAPGQGLEWMGIINPSGVSTTYAQKFQGRVTMTRDTSTSTVYMELSSLRSEDTAVYYCAETRGSGYNYFGMDVWGQGTLVTVSS VL: SYELTQPPSVSVSPGQTASITCSGDKLGDKYASWYQQKPGQSPVLVIYQDNRRPSGIPERFSGSNSGNTATLTISGTQAMDEADYYCQAWDSDTYVFGTGTKVTVL |
|  |  |  |  |  | 1 nM | 2.4e-05 s⁻¹ | 24000 M⁻¹ s⁻¹ | 3.9 nM | 8.5e-05 s⁻¹ | 22000 M⁻¹ s⁻¹ | HuAM6 (antibody, V domains shown, fully human antibody) VH: EVQLVQSGAEVKKPGASVKVSCKASGDTFNRYYVHWVRQAPGQGLEWMGIINPSGVSTTYAQKFQGRVTMTRDTSTSTVYMELSSLRSEDTAVYYCAESRVPGYNNFAMDVWGQGTLVTVSS VL: SYELTQPPSVSVSPGQTASITCSGDKLGDKYASWYQQKPGQSPVLVIYQDNRRPSGIPERFSGSNSGNTATLTISGTQAMDEADYYCQAWDSDTYVFGTGTKVTVL |
|  |  |  |  |  | ≤ 0.39 nM | ≤ 1e-05 s⁻¹ | 26000 M⁻¹ s⁻¹ | 4.9 nM | 0.00011 s⁻¹ | 22000 M⁻¹ s⁻¹ | HuAM7 (antibody, V domains shown, fully human antibody) VH: EVQLVQSGAEVKKPGASVKVSCKASGDTFNRYYVHWVRQAPGQGLEWMGIINPSGVSTTYAQKFQGRVTMTRDTSTSTVYMELSSLRSEDTAVYYCAEVRGSGYNYFGMDVWGQGTLVTVSS VL: SYELTQPPSVSVSPGQTASITCSGDKLGDKYASWYQQKPGQSPVLVIYQDNRRPSGIPERFSGSNSGNTATLTISGTQAMDEADYYCQAWDSDTYVFGTGTKVTVL |

The remaining lines, values behind:

| Binder | Kd [1] | koff [1] | kon [1] | Monocyte activation (THP1-Xblue, OD655) [2] | moDC activation (IL-12p70) [2] | Kd (human mesothelin) | koff (human mesothelin) | kon (human mesothelin) | Kd (cynomolgus mesothelin) | koff (cynomolgus mesothelin) | kon (cynomolgus mesothelin) |
| --- | --- | --- | --- | --- | --- | --- | --- | --- | --- | --- | --- |
| AD163.7.2 (antibody, V domains shown, mouse hybridoma antibody; also called muAb8) VH: QVQLQQSGPELVKSGASVKISCKASGYTFTDYYINWVKQRPGQGLEWIGWIFPGSGSVYCNEQFKGQATLTVDRSSSTAYMLLSSLTSEDSAVYFCASSLGKFAYWGQGTLVTVSA VL: DIVMTQSQKFMSTTVGDRVSITCKASQSVVTAVAWYQQKPGQSPKLLIYSASNRYTGVPDRFTGSGSGTDFALTIRTMQSEDLADYFCQQYSSYPYTFGGGTKLEIK | 4.1 nM | 0.0042 s⁻¹ | 1e+06 M⁻¹ s⁻¹ | 0.13 OD655 | 905 pg/mL |  |  |  |  |  |  |
| AD163.162.1 (antibody, V domains shown, mouse hybridoma antibody; also called muAb6) VH: QVQLQQPGAELVRPGSSVKLSCKASGYTFTSYWMHWVKQRPIQGLEWIGNIDPSNGETHYNQKFKDKATLTVDKSSSTAYMQLSSLTSEDSAVYYCARERIYYSGSTYDGYFDVWGTGTTVTVSS VL: QIVLTQSPAIMSASPGEKVTMTCSASSSLSYMHWYQQKSGTSPKRWIYDTSKLASGVPARFSGSGSGTSYSLTISSMEAEDAATYYCQQWSSNPWTFGGGTKLEIK | 63 nM | 0.0048 s⁻¹ | 76000 M⁻¹ s⁻¹ | 0.11 OD655 | 2160 pg/mL |  |  |  |  |  |  |
| AD164.76.3 (antibody, V domains shown, mouse hybridoma antibody; also called muAb10; AD164.76.2) VH: DVQLQESGPGLVKPSQSLSLTCSVTGYSITSNYYWNWIRQFPGNKLEWMGYIRYDGSNNYNPSLKNRISITRDTSKNQFFLRLNSVTTEDTATYYCTRLDYWGQGTTLTVSS VL: DAVMTQTPLSLPVSLGDQASISCRSSQSLENSNGNTFLNWFLQKPGQSPQLLIYRISNRFSGVPDRFSGSGSGTDFTLKISRVEAEDLGVYFCLQVTHVPFTFGSGTKLEIK | 13 nM | 0.034 s⁻¹ | 2.6e+06 M⁻¹ s⁻¹ | 0.16 OD655 | 770 pg/mL |  |  |  |  |  |  |
| AD165.1.2 (antibody, V domains shown, mouse hybridoma antibody; also called muAb5) VH: DVQLQESGPGLVEPSQSLFLTCSVTGYSITTNYNWNWIRQFPGNKLEWMGYIRHDGTNNYNPSLKNRISIIRDTPKNQFFLKLNSVTTEDTAIYFCTRLDYWGQGTSVTVSS VL: DAVMTQTPLSLPVSLGDQASISCRSSQSLENSYGNTFLNWFLQRPGQSPQLLIYRVSNRFCGVPDRFSGSGSGTDFTLKISRVEAEDLGIYFCLQVTHVPYTFGGGTKLEIK | 0.88 nM | 0.002 s⁻¹ | 2.3e+06 M⁻¹ s⁻¹ | 0.14 OD655 | 720 pg/mL |  |  |  |  |  |  |
| AD166.4.4 (antibody, V domains shown, mouse hybridoma antibody; also called muAb2) VH: QVQLQQSGAELMKPGASAKLSCKATGYTFTGYWIQWVKQRPGHGLEWIGEILPGGDHTKYNEKFRGKATFTSDTSSNTVYMQLSSLTTEDSAIYYCARVGGDYWGQGTTLTVSS VL: DVVMTQTPLSLPVSLGDQASISCRSSQSLVNSNENTYLHWYLQKPGQSPKLLIYKVFNRYSGVPDRFSGSGSGTDFTLKISRVEAEDLGVYFCFQSTHVPWTFGGGTKLEIK | 3.5 nM | 0.0096 s⁻¹ | 2.8e+06 M⁻¹ s⁻¹ | 0.24 OD655 | 0 pg/mL |  |  |  |  |  |  |
| HuAM1 (antibody, V domains shown, fully human antibody) VH: EVQLVQSGAEVKKPGASVKVSCKASGDTFKRYYVQWVRQAPGQGLEWMGIINPSGVSTTYAQKFQGRVTMTRDTSTSTVYMELSSLRSEDTAVYYCAESRGSGYNYFAMDVWGQGTLVTVSS VL: SYELTQPPSVSVSPGQTASITCSGDKLGDKYASWYQQKPGQSPVLVIYQDNRRPSGIPERFSGSNSGNTATLTISGTQAMDEADYYCQAWDSDTYVFGTGTKVTVL |  |  |  |  |  | 2.7 nM | 5.1e-05 s⁻¹ | 19000 M⁻¹ s⁻¹ | 11 nM | 0.0002 s⁻¹ | 18000 M⁻¹ s⁻¹ |
